Test results as given in the supplement of paper PMC10724198.
± gives the standard deviation of the averaged measurements.

What was measured:
Saccharomyces cerevisiae [1] = assay: protein stability index of tFT-peptide fusion (C-terminal peptide) (PSI (0-1 scale)); higher = more stable (slower turnover)
Experimental: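 MPS profiling in S. cerevisiae of the tFT-X12 degron library: putative degron peptides plus stable controls, 12 aa, fused to the C-terminus of a sfGFP-mCherry timer. Cells are FACS-sorted into 8 mCherry/sfGFP bins and deep-sequenced. PSI runs from 0 (unstable) to 1 (stable). Backgrounds are wild type, das1Δ and doa10Δ at 30 °C, and wild type, das1Δ, cdc34-1 and cdc53-1 at 37 °C; 2-3 technical replicates each.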

Saccharomyces cerevisiae [2] = assay: as above; conditions: genetic background: wild type; temperature: 30 C
[3] = genetic background: cdc34-1, temperature: 37 C
[4] = genetic background: cdc53-1, temperature: 37 C
[5] = genetic background: das1 deletion, temperature: 30 C
[6] = genetic background: das1 deletion, temperature: 37 C
[7] = genetic background: doa10 deletion, temperature: 30 C
[8] = genetic background: wild type, temperature: 30 C
[9] = genetic background: wild type, temperature: 37 C
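Further: PSI is a weighted mean of sequencing reads over stability bins, variants kept only with over 10 reads, mCherry proximal and sfGFP distal, peptide attached via GGGS linker.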

Row | Sequence | protein stability index (Saccharomyces cerevisiae [1]; [3]) | protein stability index (Saccharomyces cerevisiae [1]; [4]) | protein stability index (Saccharomyces cerevisiae [1]; [5]) | protein stability index (Saccharomyces cerevisiae [1]; [6]) | protein stability index (Saccharomyces cerevisiae [1]; [7]) | protein stability index (Saccharomyces cerevisiae [1]; [8]) | protein stability index (Saccharomyces cerevisiae [1]; [9]) | protein stability index (Saccharomyces cerevisiae [2])
1 | RICCLFILLFCL | 0.439 ± 0.043 | 0.464 ± 0.024 | 0.396 ± 0.03 | 0.477 ± 0.0084 | 0.422 ± 0.0089 | 0.365 ± 0.028 | 0.412 ± 0.019 | 0.423 ± 0.057
2 | VWVISLCIGGVG | 0.298 ± 0.0059 | 0.366 ± 0.0041 | 0.241 ± 0.026 | 0.399 ± 0.011 | 0.205 ± 0.011 | 0.225 ± 0.021 | 0.3811 ± 0.002 | 0.314 ± 0.025
3 | IDLISRVTVVAR | 0.394 ± 0.02 | 0.4267 ± 0.0012 | 0.268 ± 0.036 | 0.464 ± 0.0081 | 0.2236 ± 0.0022 | 0.288 ± 0.029 | 0.441 ± 0.01 | 0.4 ± 0.0047
4 | GPVRTEFWLYVW | 0.651 ± 0.014 | 0.704 ± 0.022 | 0.55 ± 0.041 | 0.655 ± 0.011 | 0.57 ± 0.031 | 0.583 ± 0.049 | 0.626 ± 0.0066 | 0.553 ± 0.18
5 | VLLSFVFCGWVR | 0.458 ± 0.014 | 0.4842 ± 0.0018 | 0.345 ± 0.027 | 0.516 ± 0.0096 | 0.326 ± 0.013 | 0.349 ± 0.025 | 0.4963 ± 0.0042 | 0.442 ± 0.019
6 | PRHVLWLRRLLF | 0.68 ± 0.052 | 0.7289 ± 0.0067 | 0.622 ± 0.02 | 0.782 ± 0.029 | 0.2 ± 0.016 | 0.235 ± 0.024 | 0.5371 ± 0.0031 | 0.334 ± 0.0067
7 | FCDFLFVFPLFS | 0.562 ± 0.016 | 0.596 ± 0.013 | 0.507 ± 0.019 | 0.6583 ± 0.0028 | 0.589 ± 0.011 | 0.479 ± 0.024 | 0.6321 ± 0.0062 | 0.515 ± 0.22
8 | LWNFYELVVYAM | 0.046 ± 0.016 | 0.0695 ± 0.046 | 0.159 ± 0.035 | 0.153 ± 0.04 | 0.103 ± 0.021 | 0.121 ± 0.019 | 0.114 ± 0.0054 | 0.212 ± 0.018
9 | VERKLMTIYIKI | 0.6106 ± 0.0052 | 0.6479 ± 0.003 | 0.451 ± 0.018 | 0.6806 ± 0.0061 | 0.492 ± 0.015 | 0.499 ± 0.063 | 0.6076 ± 0.00061 | 0.493 ± 0.005
